Legend:
type 2 IGF receptor = target: T1, type 2 IGF receptor (Rattus norvegicus, UniProt G3V824); assay: Type 2 IGF receptor binding assay on H35 (rat hepatoma) cells
T1 construct: endogenous in cells; host or cells: H35 (rat hepatoma) cells
Description: Binding to the type 2 IGF receptor was assessed on H35 (rat hepatoma) cells, see FIG. 11. Cells at 5×10^5 cells/ml were seeded into 24 well plates at 5×10^4 cells/well in DMEM containing 0.5% FCS and incubated at 37°. The cells were used for assay after 2-3 days. For the binding assay, the growth medium was flicked out of the plate, and the cells washed once with binding medium (serum free DMEM containing 25 mM HEPES, 1 mg/ml BSA and 2 mM glutamine).
A further 400 μl of binding medium was added to each well along with 50 μl of sample or IGF-II standard (Bachem). Twofold dilutions of IGF-II were used for the standard curve to give final concentrations in the well from 300-1.56 ng/ml. Labelled IGF-II was then added (50 μl of […]) to give a final concentration of 2 ng/ml and a total of about 40,000 dpm per well. The plate was incubated at room temperature for 3 hr., the assay medium removed and the cells washed four times in Hanks buffered salt solution containing 1 mg/ml BSA. The plates were blotted dry and the cells solubilised for by the addition of 750 μl 10 mM Tris HCl, 5 mM EDTA, 0.2% w/v SDS. After 15 min the lysed samples were transferred to tubes and the residual counts determined using a gamma counter.

type 1 IGF receptor = target: T2, type 1 IGF receptor (Mus musculus, UniProt Q60751); assay: Type 1 IGF receptor binding assay on Swiss mouse 3T3 cells; details: for IC50, inhibits binding of 125I-IGF-II (type 1 IGF receptor): mutant value holds for material from either secretion or refolding route
T2 construct: endogenous in cells; host or cells: Swiss mouse 3T3 cells
T2 sequence (Q60751 31-737 limits assumed): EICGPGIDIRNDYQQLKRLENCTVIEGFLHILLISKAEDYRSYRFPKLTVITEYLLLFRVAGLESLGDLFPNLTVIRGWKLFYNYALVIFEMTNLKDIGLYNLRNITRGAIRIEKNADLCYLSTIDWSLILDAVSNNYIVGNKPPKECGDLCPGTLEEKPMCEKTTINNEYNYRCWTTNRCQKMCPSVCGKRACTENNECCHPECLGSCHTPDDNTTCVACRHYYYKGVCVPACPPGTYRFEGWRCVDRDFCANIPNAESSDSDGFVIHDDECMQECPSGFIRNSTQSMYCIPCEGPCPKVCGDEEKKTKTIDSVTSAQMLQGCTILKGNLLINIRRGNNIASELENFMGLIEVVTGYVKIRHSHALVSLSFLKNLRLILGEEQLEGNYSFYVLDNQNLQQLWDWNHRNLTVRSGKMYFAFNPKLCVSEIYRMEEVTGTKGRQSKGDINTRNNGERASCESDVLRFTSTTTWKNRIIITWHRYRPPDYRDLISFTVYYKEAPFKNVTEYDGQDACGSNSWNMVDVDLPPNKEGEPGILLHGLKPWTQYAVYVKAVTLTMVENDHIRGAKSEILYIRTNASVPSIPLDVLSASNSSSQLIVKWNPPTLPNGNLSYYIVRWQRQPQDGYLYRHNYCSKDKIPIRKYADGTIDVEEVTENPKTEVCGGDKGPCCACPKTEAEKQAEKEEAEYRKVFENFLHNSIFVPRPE
T2 sequence (Q60751 742-1373 partner limits assumed): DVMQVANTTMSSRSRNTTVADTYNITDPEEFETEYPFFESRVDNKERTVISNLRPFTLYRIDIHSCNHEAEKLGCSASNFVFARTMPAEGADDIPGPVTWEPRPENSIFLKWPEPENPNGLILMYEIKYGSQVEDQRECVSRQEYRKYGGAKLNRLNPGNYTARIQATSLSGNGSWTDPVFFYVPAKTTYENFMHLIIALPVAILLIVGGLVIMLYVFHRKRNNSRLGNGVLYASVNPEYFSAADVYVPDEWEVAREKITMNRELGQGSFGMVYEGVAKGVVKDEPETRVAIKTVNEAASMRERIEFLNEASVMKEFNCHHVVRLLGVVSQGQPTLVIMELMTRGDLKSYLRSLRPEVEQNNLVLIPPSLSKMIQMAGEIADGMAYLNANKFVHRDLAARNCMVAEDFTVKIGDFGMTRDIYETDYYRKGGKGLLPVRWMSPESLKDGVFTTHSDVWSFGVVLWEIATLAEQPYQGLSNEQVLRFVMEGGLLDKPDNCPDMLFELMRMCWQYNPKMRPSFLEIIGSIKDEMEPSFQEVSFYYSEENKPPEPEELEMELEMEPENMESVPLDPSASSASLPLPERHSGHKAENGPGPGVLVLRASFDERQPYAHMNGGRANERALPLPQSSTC
Description: Swiss 3T3 cells at 5×10^4 cells/ml were seeded into 24 well plates at 5×10^3 cells/well in DMEM containing 10% FCS and incubated at 37°. The cells were used for assay after 5-6 days. For the binding assay, the growth medium was flicked out of the plate, and the cells washed twice with binding medium (serum free DMEM containing 25 mM HEPES, 1 mg/ml BSA and 2 mM glutamine). A further 400 μl of binding medium was added to each well along with 50 μl of sample or IGF-II standard (Bachem). Twofold dilutions of IGF-II were used for the standard curve to give final concentrations in the well from 300-1.56 ng/ml. […] The plate was incubated at room temperature for 2 hr., the assay medium removed and the cells washed four limes in PBS containing 1 mg/ml BSA and 0.1 μM KI. The plates were blotted dry and the cells solubilised for by the addition of 750 μl 0.5M NaOH containing 0.2% w/v Triton X100. After 15 min the lysed samples were transferred to tubes and the residual counts determined using a gamma counter.

insulin receptor = target: T3, insulin receptor (Rattus norvegicus, UniProt P15127); assay: Insulin receptor binding assay on H35 cells
T3 construct: endogenous in cells; host or cells: H35 (rat hepatoma) cells

[1] = refolded material (HRP fusion route)

T1 sequence (G3V824 36-2481): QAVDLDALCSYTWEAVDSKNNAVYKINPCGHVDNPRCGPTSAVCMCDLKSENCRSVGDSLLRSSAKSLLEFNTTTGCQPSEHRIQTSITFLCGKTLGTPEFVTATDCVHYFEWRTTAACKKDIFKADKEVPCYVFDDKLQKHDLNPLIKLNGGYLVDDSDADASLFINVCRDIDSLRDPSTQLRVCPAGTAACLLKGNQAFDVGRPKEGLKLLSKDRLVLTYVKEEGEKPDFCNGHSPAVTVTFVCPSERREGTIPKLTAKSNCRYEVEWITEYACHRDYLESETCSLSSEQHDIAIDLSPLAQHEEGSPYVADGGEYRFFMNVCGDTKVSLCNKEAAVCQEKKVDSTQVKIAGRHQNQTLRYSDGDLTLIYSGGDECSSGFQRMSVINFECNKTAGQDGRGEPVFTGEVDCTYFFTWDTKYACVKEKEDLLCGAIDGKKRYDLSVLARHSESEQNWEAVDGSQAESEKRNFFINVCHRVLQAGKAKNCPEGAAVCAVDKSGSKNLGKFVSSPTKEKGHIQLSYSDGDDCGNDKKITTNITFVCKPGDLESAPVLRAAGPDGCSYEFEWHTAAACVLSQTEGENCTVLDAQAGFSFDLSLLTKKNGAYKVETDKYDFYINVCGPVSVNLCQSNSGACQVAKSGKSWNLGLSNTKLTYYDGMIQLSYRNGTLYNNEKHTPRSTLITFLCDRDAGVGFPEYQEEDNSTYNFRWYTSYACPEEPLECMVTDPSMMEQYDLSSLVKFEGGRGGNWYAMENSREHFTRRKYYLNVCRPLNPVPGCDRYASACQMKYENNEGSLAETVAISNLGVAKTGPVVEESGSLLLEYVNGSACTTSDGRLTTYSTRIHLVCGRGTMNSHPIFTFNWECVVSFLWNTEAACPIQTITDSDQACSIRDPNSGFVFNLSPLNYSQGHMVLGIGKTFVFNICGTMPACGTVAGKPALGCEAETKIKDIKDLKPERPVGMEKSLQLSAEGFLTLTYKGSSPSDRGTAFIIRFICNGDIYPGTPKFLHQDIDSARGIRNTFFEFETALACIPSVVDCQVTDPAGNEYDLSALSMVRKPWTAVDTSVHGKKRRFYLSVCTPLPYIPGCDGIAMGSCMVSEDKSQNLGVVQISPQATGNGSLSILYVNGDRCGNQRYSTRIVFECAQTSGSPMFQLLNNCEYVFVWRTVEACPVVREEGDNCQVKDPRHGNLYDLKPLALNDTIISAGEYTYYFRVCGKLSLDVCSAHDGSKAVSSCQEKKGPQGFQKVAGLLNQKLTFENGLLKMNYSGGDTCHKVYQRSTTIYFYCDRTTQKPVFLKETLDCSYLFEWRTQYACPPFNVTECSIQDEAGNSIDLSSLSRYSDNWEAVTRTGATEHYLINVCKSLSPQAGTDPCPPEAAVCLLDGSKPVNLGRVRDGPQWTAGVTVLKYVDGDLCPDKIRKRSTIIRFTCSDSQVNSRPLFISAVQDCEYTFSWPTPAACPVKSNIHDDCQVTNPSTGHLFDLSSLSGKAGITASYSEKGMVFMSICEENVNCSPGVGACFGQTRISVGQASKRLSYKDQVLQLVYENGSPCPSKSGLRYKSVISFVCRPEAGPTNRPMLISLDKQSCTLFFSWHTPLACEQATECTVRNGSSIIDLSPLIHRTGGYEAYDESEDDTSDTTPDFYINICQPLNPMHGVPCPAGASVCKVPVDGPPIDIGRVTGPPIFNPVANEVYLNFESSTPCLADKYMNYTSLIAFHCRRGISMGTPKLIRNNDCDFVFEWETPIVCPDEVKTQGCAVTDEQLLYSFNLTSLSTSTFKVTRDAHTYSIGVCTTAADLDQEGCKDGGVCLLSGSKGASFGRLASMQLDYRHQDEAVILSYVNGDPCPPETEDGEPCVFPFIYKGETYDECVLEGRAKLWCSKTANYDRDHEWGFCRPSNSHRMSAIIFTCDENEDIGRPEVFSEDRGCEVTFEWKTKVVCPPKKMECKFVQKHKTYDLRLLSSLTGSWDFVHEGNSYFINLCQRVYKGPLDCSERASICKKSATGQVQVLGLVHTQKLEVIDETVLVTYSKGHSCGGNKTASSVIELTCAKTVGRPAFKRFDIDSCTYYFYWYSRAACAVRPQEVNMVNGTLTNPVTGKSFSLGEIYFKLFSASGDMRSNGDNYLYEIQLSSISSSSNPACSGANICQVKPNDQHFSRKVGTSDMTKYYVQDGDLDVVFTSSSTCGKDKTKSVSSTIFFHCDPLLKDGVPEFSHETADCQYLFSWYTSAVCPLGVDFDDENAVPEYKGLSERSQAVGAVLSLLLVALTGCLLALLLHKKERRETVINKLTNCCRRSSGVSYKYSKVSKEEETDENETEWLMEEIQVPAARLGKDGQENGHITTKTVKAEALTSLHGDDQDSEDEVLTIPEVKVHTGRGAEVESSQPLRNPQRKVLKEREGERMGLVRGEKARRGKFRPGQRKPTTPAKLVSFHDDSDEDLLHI

Substance	IC50, inhibits binding of 125I-IGF-II (type 2 IGF receptor) (type 2 IGF receptor; commercial reference standard (Bachem)) [µg/mL]	IC50, inhibits binding of 125I-IGF-II (type 1 IGF receptor) (type 1 IGF receptor) [µg/mL]	IC50, inhibits binding of 125I-insulin (insulin receptor) (insulin receptor; [1]) [µg/mL]	IC50, inhibits binding of 125I-IGF-II (type 2 IGF receptor) (type 2 IGF receptor; [1]) [µg/mL]	IC50, inhibits binding of 125I-insulin (insulin receptor) (insulin receptor; secreted material) [µg/mL]	affinity for the type 2 IGF receptor versus native IGF-II (type 2 IGF receptor)	IC50, inhibits binding of 125I-IGF-II (type 2 IGF receptor) (type 2 IGF receptor; secreted material) [µg/mL]	affinity for the type 1 IGF receptor versus native IGF-II (type 1 IGF receptor)
wild-type standard (Bachem): recombinant IGF-II from a commercial supplier (Bachem) used as a reference standard [reference compound]	0.018	0.06	–	–	–	–	–	–
wild-type refolded material: wild-type IGF-II made by the HRP fusion route and refolded [reference compound]	–	0.1	0.16	0.03	–	–	–	–
IGF-II (Q^37 Q^38): IGF-II with the modifications Arg37Gln and Arg38Gln	–	0.21	1.3	0.06	1.6	comparable to native IGF-II	0.03	comparable to native IGF-II

From patent US5736363A, “IGF-II analogues” (British Bio-technology Limited, priority 1991, dated 1998)
